Changes are numbered by the printed parent chain.
Assays:
Experiment in all cases: BLI
CCL4L1_HUMAN = target: T1, CCL4L1_HUMAN (Homo sapiens)
T1 chain: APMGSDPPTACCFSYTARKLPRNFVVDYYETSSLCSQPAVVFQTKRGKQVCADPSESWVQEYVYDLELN

CCL24_HUMAN = target: T2, CCL24_HUMAN (Homo sapiens)
T2 chain: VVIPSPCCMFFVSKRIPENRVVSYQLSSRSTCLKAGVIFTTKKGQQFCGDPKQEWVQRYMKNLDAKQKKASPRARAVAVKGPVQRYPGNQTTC

CCL1 = target: T3, CCL1 (human, UniProt P22362 24-96)
T3 chain: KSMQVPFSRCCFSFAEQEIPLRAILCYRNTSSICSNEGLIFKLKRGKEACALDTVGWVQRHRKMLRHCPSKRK

CCL8 = target: T4, CCL8 (human, UniProt P80075 24-99)
T4 chain: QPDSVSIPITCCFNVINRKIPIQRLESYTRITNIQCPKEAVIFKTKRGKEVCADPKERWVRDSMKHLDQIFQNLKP

CCL5 = target: T5, CCL5 (human, UniProt P13501 24-91)
T5 chain: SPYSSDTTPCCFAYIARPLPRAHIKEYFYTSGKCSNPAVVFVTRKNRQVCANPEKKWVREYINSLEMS

B1: P985_AMBPA, purified, C-terminal StrepII-8xHis tag (natural protein)
chain: ETGDEESEELGASTDVDYEELDANCTCPAPALTSTRNNKHYPLGCIYNCSSYNCTIPDGTPCYVLTLGEVKEHLQIGSTVPNCTCGLCRNGTCVSNGTVEECFAVEEIEET
Kd (CCL4L1_HUMAN): 21 nM
Kd (CCL24_HUMAN): 41 nM
Kd (CCL1): 8.3 nM

B2: P974_AMBCA, purified, C-terminal StrepII-8xHis tag (natural protein)
chain: ETGENTQQEEQDYDYGTDTCPFPVLANKTNKAKFVGCHQKCNGGDQKLTDGTACYVVERKVWDRMTPMLWYECPLGECKNGVCEDLRKKEDCRKGNGEEK
Kd (CCL8): 2.6 nM
Kd (CCL1): 71 nM

B3: P546_AMBCA, purified, C-terminal StrepII-8xHis tag (natural protein)
chain: B2 chain with Q11E, E72S, D91E
Kd (CCL8): 1.3 nM
Kd (CCL4L1_HUMAN): 8.9 nM

B4: P467_RHIPU, purified, C-terminal StrepII-8xHis tag (natural protein)
chain: ETGAEKSLDSDSSGEDYELWTQGCPFLVAENRTGFGTTVSCQHNCNGAIEKVPEGEPCYTIGEDGLGRMKLNLPYNCSLGECSGGVCVPNGRSDVCFKRTWEENNKAMA
Kd (CCL4L1_HUMAN): 4.7 nM
Kd (CCL5): 7.7 nM
Kd (CCL1): 53 nM

B5: P1183_AMBTR, purified, C-terminal StrepII-8xHis tag (natural protein)
chain: ETGEAPKDDFEYDGGCPFVVLDNGTHVKPAGCSHLCNGAPETLDNIECYNVTEEVAKRMTPGIPYACWLGWCSKGECKRDNRTEVCYRGSEEE
Kd (CCL8): 1100 nM

B6: P983_AMBCA, purified, C-terminal StrepII-8xHis tag (natural protein)
chain: ETGEDTGTEDDFDYGNTGCPFPVLGNYKSNMTKPVGCKNKCGSGYEVLNDTTPCYVIDQKVFNNMVPLRQYSKCPLGFCENGECKPNDQAEDCYKGREEQKGGGGGSGGGGSGGASAWSHPQFEKLEHHHHHHHH
Kd (CCL4L1_HUMAN): 2.9 nM
